{"source": "paper PMC12021427", "biological_target": "PS2 S-layer protein of Corynebacterium glutamicum 541 (ATCC-13058) (Corynebacterium glutamicum 541 (ATCC-13058))", "assay": "cryo-EM structure; single particle cryo-EM of S-layer sheets purified from cells with SDS; 50 mM HEPES/NaOH pH 7.5, 150 mM NaCl, 1 mM MgCl2, 2 mM CaCl2; C6 symmetry; 3.1 Å; lattices still intact after 10 mM EDTA or 10 mM EGTA for 2 h"}
{"substance": "PS2 S-layer protein of Corynebacterium glutamicum 541 (ATCC-13058) (natural protein)", "values": [{"measurement": "stoichiometry N", "result": 6}]}
